Laboratory results taken from article PMC4861916, “Characterization of a Citrus R2R3-MYB Transcription Factor that Regulates the Flavonol and Hydroxycinnamic Acid Biosynthesis”.

B1: CsCHS promoter probe mutant (dsDNA)
DNA 1: TTGATTTCTAGAACCCCCATTG
DNA 2: CAATGGGGGTTCTAGAAATCAA
B2: Cs4CL promoter probe mutant (dsDNA)
DNA 1: TTAACTGCTCTAGACACACCCA
DNA 2: TGGGTGTGTCTAGAGCAGTTAA
B3: SlFLS promoter probe WT (dsDNA)
DNA 1: CTTATATCACCTACTCAACTTA
DNA 2: TAAGTTGAGTAGGTGATATAAG
B4: Cs4CL promoter probe WT (dsDNA)
DNA 1: TTAACTGCACCTACCACACCCA
DNA 2: TGGGTGTGGTAGGTGCAGTTAA
B5: SlFLS promoter probe mutant (dsDNA)
DNA 1: CTTATATCGTCGACTCAACTTA
DNA 2: TAAGTTGAGTCGACGATATAAG
B6: CsCHS promoter probe WT (dsDNA)
DNA 1: TTGATTTAACCTACCCCCATTG
DNA 2: CAATGGGGGTAGGTTAAATCAA

Biological target: CsMYBF1 (Citrus, UniProt A0A125SL50 1-337)
Assay: EMSA; 0.1% Nonidet P-40, 1 mM benzamidine, 0.5 mM PMSF, 0.5 mM DTT, 50 ug/mL BSA, 100 ng/uL poly(dI-dC), 5 uM Cy3 probe, 1 ug protein in 20 uL, 4 C 2 h; 6% PAGE in 0.5x TBE at 4 C; salt and pH not stated
Settings: protein: recombinant; tags: His (pET28a); label: Cy3

Sequence of CsMYBF1 (A0A125SL50 entry or part of it): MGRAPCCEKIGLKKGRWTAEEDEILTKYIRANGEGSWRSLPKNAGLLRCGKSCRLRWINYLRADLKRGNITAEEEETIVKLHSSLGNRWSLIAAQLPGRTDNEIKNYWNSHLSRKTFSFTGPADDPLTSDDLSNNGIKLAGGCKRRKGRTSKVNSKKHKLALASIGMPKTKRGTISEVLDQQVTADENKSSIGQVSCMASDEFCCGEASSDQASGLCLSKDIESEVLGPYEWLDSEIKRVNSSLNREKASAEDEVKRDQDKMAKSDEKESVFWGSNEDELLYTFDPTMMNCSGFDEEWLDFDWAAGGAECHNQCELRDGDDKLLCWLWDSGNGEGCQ

Row | Binder | binding result
1 | B1 | no binding
2 | B2 | no binding
3 | B3 | binds
4 | B4 | binds
5 | B5 | no binding
6 | B6 | binds
